Among the data in patent US11781118B2, “Preparation of L-amino acid deaminase mutant and application thereof” (Jiangnan University, priority 2020, dated 2023) are α-ketoisovaleric acid values, retold here.

A short description of this assay: Shake flask screening of mutants: whole-cell transformation of L-valine, α-ketoisovaleric acid determined by HPLC. Conditions: transformation temperature 25° C., pH 8.0, 24 h. The class given is cell-based, E. coli BL21. Here is the method: Preparation of sample for determining α-ketoisovaleric acid content by HPLC: 1 mL of a transformed transformation solution is centrifuged at 12000 rpm for 5 min, the supernatant is diluted and filtered through a 0.45 μm filtration membrane, and the filtrate is for liquid chromatography.
Determination of α-ketoisovaleric acid content by HPLC: a waters high performance liquid chromatograph (equipped with a UV-visible detector) and a Bio-Rad Aminex HPX-87H (300×7.8 mm, 9 μm) chromatographic column are used, and the mobile phase is dilute sulfuric acid with the concentration of 2.5 mmol/L. The mobile phase is filtered through a 0.22 μm filtration membrane; the filtrate is subjected to ultrasonic degassing; and detection is performed at the flow rate of 0.6 mL/min, the column temperature of 35° C. and the ultraviolet detection wavelength of 210 nm.
(2) Shake flask screening of single mutants: The obtained 4 mutant strains and a strain containing wild-type L-amino acid deaminase were respectively inoculated into an LB seed medium, and cultured at 200 rpm at 37° C. for about 10 h. The products were respectively inoculated into a shake flask fermentation medium with the inoculum size of 5% of the medium by volume, and cultured at 200 rpm at 37° C. until OD600 was about 0.8. IPTG with the final concentration of 0.04 mmol/L was added for induction, and the induction was performed at 200 rpm at 25° C. for 14 h. The product was centrifuged at 6000 rpm for 8 min to collect bacterial cells. The bacterial cells collected by centrifugation were used for later transformation experiments.
Transformation conditions: transformation temperature 25° C., reaction pH 8.0, and transformation time 24 h.
The yield of α-ketoisovaleric acid of the transformation solution after the completion of the transformation was determined by HPLC. Finally, S98A produced α-ketoisovaleric acid at the highest yield.

B1: PmirLAAD^S98A (protein)
chain: MNISRRKLLLGVGAAGVLAGGAALVPMVRRDGKFVEAKSRASFVEGTQGALPKEADVVIIGAGIQGIMTAINLAERGMSVTILEKGQIAGEQSGRAYAQIISYQTSPEIFPLHHYGKILWRGMNEKIGADTSYRTQGRVEALADEKALDKAQAWIKTAKEAAGFDTPLNTRIIKGEELSNRLVGAQTPWTVAAFEEDSGSVDPETGTPALARYAKQIGVKIYTNCAVRGIETAGGKISDVVSEKGAIKTSQVVLAGGIWSRLFMGNMGIDIPTLNVYLSQQRVSGVPGAPRGNVHLPNGIHFREQADGTYAVAPRIFTSSIVKDSFLLGPKFMHLLGGGELPLEFSIGEDLFNSFKMPTSWNLDEKTPFEQFRVATATQNTQHLDAVFQRMKTEFPVFEKSEVVERWGAVVSPTFDELPIISEVKEYPGLVINTATVWGMTEGPAAGEVTADIVMGKKPVIDPTPFSLDRFKK
For the molecule B1, the α-ketoisovaleric acid is on record as 46.9 g/L.

B2: PmirLAAD^T105A/L341A (protein)
chain: MNISRRKLLLGVGAAGVLAGGAALVPMVRRDGKFVEAKSRASFVEGTQGALPKEADVVIIGAGIQGIMTAINLAERGMSVTILEKGQIAGEQSGRAYSQIISYQASPEIFPLHHYGKILWRGMNEKIGADTSYRTQGRVEALADEKALDKAQAWIKTAKEAAGFDTPLNTRIIKGEELSNRLVGAQTPWTVAAFEEDSGSVDPETGTPALARYAKQIGVKIYTNCAVRGIETAGGKISDVVSEKGAIKTSQVVLAGGIWSRLFMGNMGIDIPTLNVYLSQQRVSGVPGAPRGNVHLPNGIHFREQADGTYAVAPRIFTSSIVKDSFLLGPKFMHLLGGGEAPLEFSIGEDLFNSFKMPTSWNLDEKTPFEQFRVATATQNTQHLDAVFQRMKTEFPVFEKSEVVERWGAVVSPTFDELPIISEVKEYPGLVINTATVWGMTEGPAAGEVTADIVMGKKPVIDPTPFSLDRFKK
As for B2, the α-ketoisovaleric acid is given as 47.1 g/L.

B3: PmirLAAD^S98A/T105A (protein)
chain: MNISRRKLLLGVGAAGVLAGGAALVPMVRRDGKFVEAKSRASFVEGTQGALPKEADVVIIGAGIQGIMTAINLAERGMSVTILEKGQIAGEQSGRAYAQIISYQASPEIFPLHHYGKILWRGMNEKIGADTSYRTQGRVEALADEKALDKAQAWIKTAKEAAGFDTPLNTRIIKGEELSNRLVGAQTPWTVAAFEEDSGSVDPETGTPALARYAKQIGVKIYTNCAVRGIETAGGKISDVVSEKGAIKTSQVVLAGGIWSRLFMGNMGIDIPTLNVYLSQQRVSGVPGAPRGNVHLPNGIHFREQADGTYAVAPRIFTSSIVKDSFLLGPKFMHLLGGGELPLEFSIGEDLFNSFKMPTSWNLDEKTPFEQFRVATATQNTQHLDAVFQRMKTEFPVFEKSEVVERWGAVVSPTFDELPIISEVKEYPGLVINTATVWGMTEGPAAGEVTADIVMGKKPVIDPTPFSLDRFKK
B3: the α-ketoisovaleric acid is recorded as 52.6 g/L.

B4: PmirLAAD^S98A/S106A (protein)
chain: MNISRRKLLLGVGAAGVLAGGAALVPMVRRDGKFVEAKSRASFVEGTQGALPKEADVVIIGAGIQGIMTAINLAERGMSVTILEKGQIAGEQSGRAYAQIISYQTAPEIFPLHHYGKILWRGMNEKIGADTSYRTQGRVEALADEKALDKAQAWIKTAKEAAGFDTPLNTRIIKGEELSNRLVGAQTPWTVAAFEEDSGSVDPETGTPALARYAKQIGVKIYTNCAVRGIETAGGKISDVVSEKGAIKTSQVVLAGGIWSRLFMGNMGIDIPTLNVYLSQQRVSGVPGAPRGNVHLPNGIHFREQADGTYAVAPRIFTSSIVKDSFLLGPKFMHLLGGGELPLEFSIGEDLFNSFKMPTSWNLDEKTPFEQFRVATATQNTQHLDAVFQRMKTEFPVFEKSEVVERWGAVVSPTFDELPIISEVKEYPGLVINTATVWGMTEGPAAGEVTADIVMGKKPVIDPTPFSLDRFKK
Turning to B4, the α-ketoisovaleric acid was found to be 50.9 g/L.

B5: PmirLAAD^S98A/L341A (protein)
chain: MNISRRKLLLGVGAAGVLAGGAALVPMVRRDGKFVEAKSRASFVEGTQGALPKEADVVIIGAGIQGIMTAINLAERGMSVTILEKGQIAGEQSGRAYAQIISYQTSPEIFPLHHYGKILWRGMNEKIGADTSYRTQGRVEALADEKALDKAQAWIKTAKEAAGFDTPLNTRIIKGEELSNRLVGAQTPWTVAAFEEDSGSVDPETGTPALARYAKQIGVKIYTNCAVRGIETAGGKISDVVSEKGAIKTSQVVLAGGIWSRLFMGNMGIDIPTLNVYLSQQRVSGVPGAPRGNVHLPNGIHFREQADGTYAVAPRIFTSSIVKDSFLLGPKFMHLLGGGEAPLEFSIGEDLFNSFKMPTSWNLDEKTPFEQFRVATATQNTQHLDAVFQRMKTEFPVFEKSEVVERWGAVVSPTFDELPIISEVKEYPGLVINTATVWGMTEGPAAGEVTADIVMGKKPVIDPTPFSLDRFKK
B5: the α-ketoisovaleric acid was found to be 51.5 g/L.

B6: PmirLAAD^S106A/L341A (protein)
chain: MNISRRKLLLGVGAAGVLAGGAALVPMVRRDGKFVEAKSRASFVEGTQGALPKEADVVIIGAGIQGIMTAINLAERGMSVTILEKGQIAGEQSGRAYSQIISYQTAPEIFPLHHYGKILWRGMNEKIGADTSYRTQGRVEALADEKALDKAQAWIKTAKEAAGFDTPLNTRIIKGEELSNRLVGAQTPWTVAAFEEDSGSVDPETGTPALARYAKQIGVKIYTNCAVRGIETAGGKISDVVSEKGAIKTSQVVLAGGIWSRLFMGNMGIDIPTLNVYLSQQRVSGVPGAPRGNVHLPNGIHFREQADGTYAVAPRIFTSSIVKDSFLLGPKFMHLLGGGEAPLEFSIGEDLFNSFKMPTSWNLDEKTPFEQFRVATATQNTQHLDAVFQRMKTEFPVFEKSEVVERWGAVVSPTFDELPIISEVKEYPGLVINTATVWGMTEGPAAGEVTADIVMGKKPVIDPTPFSLDRFKK
B6 showed a α-ketoisovaleric acid of 46.5 g/L.

B7: PmirLAAD^T105A/S106A (protein)
chain: MNISRRKLLLGVGAAGVLAGGAALVPMVRRDGKFVEAKSRASFVEGTQGALPKEADVVIIGAGIQGIMTAINLAERGMSVTILEKGQIAGEQSGRAYSQIISYQAAPEIFPLHHYGKILWRGMNEKIGADTSYRTQGRVEALADEKALDKAQAWIKTAKEAAGFDTPLNTRIIKGEELSNRLVGAQTPWTVAAFEEDSGSVDPETGTPALARYAKQIGVKIYTNCAVRGIETAGGKISDVVSEKGAIKTSQVVLAGGIWSRLFMGNMGIDIPTLNVYLSQQRVSGVPGAPRGNVHLPNGIHFREQADGTYAVAPRIFTSSIVKDSFLLGPKFMHLLGGGELPLEFSIGEDLFNSFKMPTSWNLDEKTPFEQFRVATATQNTQHLDAVFQRMKTEFPVFEKSEVVERWGAVVSPTFDELPIISEVKEYPGLVINTATVWGMTEGPAAGEVTADIVMGKKPVIDPTPFSLDRFKK
With B7, the α-ketoisovaleric acid is 49.4 g/L.

B8: PmirLAAD^L341A (protein)
chain: MNISRRKLLLGVGAAGVLAGGAALVPMVRRDGKFVEAKSRASFVEGTQGALPKEADVVIIGAGIQGIMTAINLAERGMSVTILEKGQIAGEQSGRAYSQIISYQTSPEIFPLHHYGKILWRGMNEKIGADTSYRTQGRVEALADEKALDKAQAWIKTAKEAAGFDTPLNTRIIKGEELSNRLVGAQTPWTVAAFEEDSGSVDPETGTPALARYAKQIGVKIYTNCAVRGIETAGGKISDVVSEKGAIKTSQVVLAGGIWSRLFMGNMGIDIPTLNVYLSQQRVSGVPGAPRGNVHLPNGIHFREQADGTYAVAPRIFTSSIVKDSFLLGPKFMHLLGGGEAPLEFSIGEDLFNSFKMPTSWNLDEKTPFEQFRVATATQNTQHLDAVFQRMKTEFPVFEKSEVVERWGAVVSPTFDELPIISEVKEYPGLVINTATVWGMTEGPAAGEVTADIVMGKKPVIDPTPFSLDRFKK
For the molecule B8, the α-ketoisovaleric acid is listed as 43.6 g/L.

B9: PmirLAAD^T105A (protein)
chain: MNISRRKLLLGVGAAGVLAGGAALVPMVRRDGKFVEAKSRASFVEGTQGALPKEADVVIIGAGIQGIMTAINLAERGMSVTILEKGQIAGEQSGRAYSQIISYQASPEIFPLHHYGKILWRGMNEKIGADTSYRTQGRVEALADEKALDKAQAWIKTAKEAAGFDTPLNTRIIKGEELSNRLVGAQTPWTVAAFEEDSGSVDPETGTPALARYAKQIGVKIYTNCAVRGIETAGGKISDVVSEKGAIKTSQVVLAGGIWSRLFMGNMGIDIPTLNVYLSQQRVSGVPGAPRGNVHLPNGIHFREQADGTYAVAPRIFTSSIVKDSFLLGPKFMHLLGGGELPLEFSIGEDLFNSFKMPTSWNLDEKTPFEQFRVATATQNTQHLDAVFQRMKTEFPVFEKSEVVERWGAVVSPTFDELPIISEVKEYPGLVINTATVWGMTEGPAAGEVTADIVMGKKPVIDPTPFSLDRFKK
B9 showed a α-ketoisovaleric acid of 44.6 g/L.

B10: PmirLAAD^S106A (protein)
chain: MNISRRKLLLGVGAAGVLAGGAALVPMVRRDGKFVEAKSRASFVEGTQGALPKEADVVIIGAGIQGIMTAINLAERGMSVTILEKGQIAGEQSGRAYSQIISYQTAPEIFPLHHYGKILWRGMNEKIGADTSYRTQGRVEALADEKALDKAQAWIKTAKEAAGFDTPLNTRIIKGEELSNRLVGAQTPWTVAAFEEDSGSVDPETGTPALARYAKQIGVKIYTNCAVRGIETAGGKISDVVSEKGAIKTSQVVLAGGIWSRLFMGNMGIDIPTLNVYLSQQRVSGVPGAPRGNVHLPNGIHFREQADGTYAVAPRIFTSSIVKDSFLLGPKFMHLLGGGELPLEFSIGEDLFNSFKMPTSWNLDEKTPFEQFRVATATQNTQHLDAVFQRMKTEFPVFEKSEVVERWGAVVSPTFDELPIISEVKEYPGLVINTATVWGMTEGPAAGEVTADIVMGKKPVIDPTPFSLDRFKK
B10: the α-ketoisovaleric acid is recorded as 44.9 g/L.
